According to the supplement of paper PMC9112550, “Optimization of the antimicrobial peptide Bac7 by deep mutational scanning” (BMC Biology, 2022):

test system: Escherichia coli TOP10; test: shrunken log2 fold change of peptide-encoding DNA abundance (4.5 h post-induction vs induction); higher = less antimicrobial activity (less host growth inhibition); settings: time post-induction: 4.5 h; library: site-saturation at positions 5, 18, 19, 20
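Also: peptides expressed intracellularly from a pBAD plasmid library in pooled LB shake-flask culture, induced with 0.3% L-arabinose, DNA abundance read by NGS, three biological replicates, DESeq2 with apeglm shrinkage.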

Sequence	shrunken log2 fold change
RRIRTRPPRLPRPRPRPFYLPRP	-0.522
RRIRCRPPRLPRPRPRPESWPRP	0.598
RRIRPRPPRLPRPRPRPECIPRP	-0.0733
RRIRSRPPRLPRPRPRPGCYPRP	-0.173
RRIRCRPPRLPRPRPRPTYIPRP	-0.959
RRIRVRPPRLPRPRPRPMQYPRP	-0.324
RRIRYRPPRLPRPRPRPIMTPRP	-0.991
RRIRWRPPRLPRPRPRPEVFPRP	1.35
RRIRVRPPRLPRPRPRPNFFPRP	0.0488
RRIRVRPPRLPRPRPRPKDWPRP	0.0589
RRIRNRPPRLPRPRPRPESRPRP	0.114
RRIRPRPPRLPRPRPRPDLKPRP	-0.0801
RRIRCRPPRLPRPRPRPNTAPRP	-0.22
RRIRCRPPRLPRPRPRPPYNPRP	-0.618
RRIRCRPPRLPRPRPRPYHRPRP	-0.77
RRIRDRPPRLPRPRPRPEEHPRP	0.937
RRIRTRPPRLPRPRPRPQEWPRP	-0.0128
RRIRTRPPRLPRPRPRPSHSPRP	-0.399
RRIRCRPPRLPRPRPRPMLPPRP	-0.00464
RRIRPRPPRLPRPRPRPWFPPRP	-0.215
RRIRYRPPRLPRPRPRPCQMPRP	-0.255
RRIRNRPPRLPRPRPRPITSPRP	-0.282
RRIRRRPPRLPRPRPRPCKHPRP	0.00883
RRIRARPPRLPRPRPRPECHPRP	1.38
RRIRERPPRLPRPRPRPFCCPRP	-0.0198

Sequence	shrunken log2 fold change
RRIRCRPPRLPRPRPRPGFQPRP	-0.356
RRIRARPPRLPRPRPRPAVCPRP	0.442
RRIRSRPPRLPRPRPRPYGQPRP	-0.134
RRIRQRPPRLPRPRPRPDPMPRP	-0.0539
RRIRRRPPRLPRPRPRPTLVPRP	0.315
RRIRLRPPRLPRPRPRPHVLPRP	-0.0737
RRIRTRPPRLPRPRPRPGHHPRP	-0.27
RRIRSRPPRLPRPRPRPNIYPRP	-0.519
RRIRERPPRLPRPRPRPGPMPRP	0.224
RRIRGRPPRLPRPRPRPDLEPRP	0.288
RRIRARPPRLPRPRPRPEHMPRP	0.137
RRIRRRPPRLPRPRPRPWDYPRP	0.0184
RRIRFRPPRLPRPRPRPFAVPRP	-0.354
RRIRTRPPRLPRPRPRPLMWPRP	-0.151
RRIRWRPPRLPRPRPRPLVVPRP	0.173
RRIRHRPPRLPRPRPRPRPDPRP	0.179
RRIRMRPPRLPRPRPRPEKKPRP	0.104
RRIRCRPPRLPRPRPRPMKHPRP	-0.486
RRIRWRPPRLPRPRPRPRTIPRP	-0.0129
RRIRRRPPRLPRPRPRPGDQPRP	0.272
RRIRVRPPRLPRPRPRPDWLPRP	-0.0563
RRIRYRPPRLPRPRPRPHWAPRP	-0.24
RRIRQRPPRLPRPRPRPHCWPRP	-0.0628
RRIRSRPPRLPRPRPRPEADPRP	0.688
RRIRSRPPRLPRPRPRPADWPRP	0.405

Sequence	shrunken log2 fold change
RRIRKRPPRLPRPRPRPVLTPRP	0.342
RRIRYRPPRLPRPRPRPSYYPRP	-1.66
RRIRIRPPRLPRPRPRPYDRPRP	-0.499
RRIRTRPPRLPRPRPRPMCRPRP	-0.0404
RRIRSRPPRLPRPRPRPLLKPRP	0.253
RRIRERPPRLPRPRPRPHQLPRP	0.0377
RRIRNRPPRLPRPRPRPRQKPRP	-0.0544
RRIRERPPRLPRPRPRPNCVPRP	-0.0533
RRIRIRPPRLPRPRPRPMVQPRP	-0.0334
RRIRHRPPRLPRPRPRPWMIPRP	-0.00164
RRIRQRPPRLPRPRPRPHYCPRP	-0.0397
RRIRERPPRLPRPRPRPYQVPRP	-0.109
RRIRCRPPRLPRPRPRPVHSPRP	-0.107
RRIRFRPPRLPRPRPRPPKPPRP	0.47
RRIRTRPPRLPRPRPRPFWFPRP	0.526
RRIRMRPPRLPRPRPRPGHFPRP	0.274
RRIRVRPPRLPRPRPRPPTHPRP	0.117
RRIRHRPPRLPRPRPRPPEYPRP	0.0328
RRIRERPPRLPRPRPRPTPQPRP	0.246
RRIRVRPPRLPRPRPRPKWTPRP	0.0514
RRIRPRPPRLPRPRPRPGFMPRP	0.048
RRIRERPPRLPRPRPRPLPQPRP	-0.06
RRIRPRPPRLPRPRPRPWMLPRP	-0.168
RRIRYRPPRLPRPRPRPTLPPRP	-0.135
RRIRIRPPRLPRPRPRPYHHPRP	-0.0849

Sequence	shrunken log2 fold change
RRIRMRPPRLPRPRPRPPTYPRP	0.306
RRIRDRPPRLPRPRPRPYIIPRP	-0.758
RRIRARPPRLPRPRPRPKQVPRP	0.0289
RRIRRRPPRLPRPRPRPAMQPRP	0.423
RRIRKRPPRLPRPRPRPFEDPRP	-0.136
RRIRLRPPRLPRPRPRPEWDPRP	0.273
RRIRHRPPRLPRPRPRPAMYPRP	-0.0134
RRIRKRPPRLPRPRPRPENDPRP	-0.0386
RRIRQRPPRLPRPRPRPPCWPRP	0.102
RRIRIRPPRLPRPRPRPEPHPRP	-0.0648
RRIRHRPPRLPRPRPRPILGPRP	-0.0179
RRIRWRPPRLPRPRPRPSIHPRP	-0.319
RRIRWRPPRLPRPRPRPGYNPRP	-0.0807
RRIRGRPPRLPRPRPRPMKAPRP	0.231
RRIRWRPPRLPRPRPRPSTVPRP	-0.362
RRIRPRPPRLPRPRPRPCEMPRP	2.11
RRIRMRPPRLPRPRPRPIDQPRP	0.0164
RRIRDRPPRLPRPRPRPKGRPRP	0.218
RRIRSRPPRLPRPRPRPNYVPRP	-0.906
RRIRIRPPRLPRPRPRPQYEPRP	-0.184
RRIRFRPPRLPRPRPRPVGCPRP	-0.0325
RRIRERPPRLPRPRPRPYFHPRP	-0.996
RRIRDRPPRLPRPRPRPNNWPRP	-0.11
RRIRIRPPRLPRPRPRPCVYPRP	-0.227
RRIRERPPRLPRPRPRPPMVPRP	-0.45

Sequence	shrunken log2 fold change
RRIRYRPPRLPRPRPRPACQPRP	-0.142
RRIRDRPPRLPRPRPRPDGCPRP	0.252
RRIRGRPPRLPRPRPRPGMWPRP	0.78
RRIRVRPPRLPRPRPRPYFVPRP	0.263
RRIRRRPPRLPRPRPRPVAWPRP	0.341
RRIRYRPPRLPRPRPRPQHEPRP	0.0438
RRIRWRPPRLPRPRPRPVQEPRP	0.342
RRIRCRPPRLPRPRPRPESMPRP	0.114
RRIRLRPPRLPRPRPRPMELPRP	-0.00973
RRIRFRPPRLPRPRPRPRYFPRP	0.0373
RRIRDRPPRLPRPRPRPDLAPRP	0.814
RRIRDRPPRLPRPRPRPVDMPRP	0.0154
RRIRQRPPRLPRPRPRPDSGPRP	-0.0171
RRIRSRPPRLPRPRPRPKAFPRP	-0.0206
RRIRSRPPRLPRPRPRPNKNPRP	-0.384
RRIRSRPPRLPRPRPRPYHRPRP	-0.507
RRIRSRPPRLPRPRPRPVIFPRP	-0.335
RRIRSRPPRLPRPRPRPNNGPRP	-0.035
RRIRDRPPRLPRPRPRPMWDPRP	0.00712
RRIRTRPPRLPRPRPRPKCCPRP	-0.133
RRIRTRPPRLPRPRPRPSQAPRP	0.0983
RRIRTRPPRLPRPRPRPGYWPRP	-0.0903
RRIRSRPPRLPRPRPRPMFYPRP	-0.544
RRIRNRPPRLPRPRPRPEARPRP	-0.0678
RRIRVRPPRLPRPRPRPFTSPRP	-0.0104

Sequence	shrunken log2 fold change
RRIRIRPPRLPRPRPRPWAVPRP	-0.203
RRIRIRPPRLPRPRPRPVVWPRP	0.321
RRIRCRPPRLPRPRPRPTTRPRP	0.176
RRIRDRPPRLPRPRPRPSCTPRP	-0.244
RRIRNRPPRLPRPRPRPQNIPRP	-0.263
RRIRYRPPRLPRPRPRPTEQPRP	-0.0161
RRIRNRPPRLPRPRPRPWKHPRP	-0.347
RRIRGRPPRLPRPRPRPQRLPRP	0.329
RRIRIRPPRLPRPRPRPMLPPRP	-0.0228
RRIRIRPPRLPRPRPRPRVIPRP	-0.209
RRIRNRPPRLPRPRPRPDYWPRP	-0.21
RRIRRRPPRLPRPRPRPSQTPRP	0.294
RRIRPRPPRLPRPRPRPVTAPRP	0.385
RRIRIRPPRLPRPRPRPPTQPRP	0.215
RRIRARPPRLPRPRPRPPHVPRP	0.805
RRIRCRPPRLPRPRPRPEFSPRP	0.072
RRIRGRPPRLPRPRPRPRVFPRP	1.02
RRIRSRPPRLPRPRPRPLFKPRP	-0.127
RRIRIRPPRLPRPRPRPAKAPRP	-0.00404
RRIRRRPPRLPRPRPRPARDPRP	0.185
RRIRCRPPRLPRPRPRPWKNPRP	0.0137
RRIRFRPPRLPRPRPRPDESPRP	-0.0167
RRIRQRPPRLPRPRPRPNVPPRP	-0.0402
RRIRYRPPRLPRPRPRPLGSPRP	-0.651
RRIRFRPPRLPRPRPRPAPLPRP	0.516
